How the values were obtained:
HER2 ECD [1] = target: T1, HER2 ECD (human, UniProt P04626 23-652); assay: SPR (Biacore 8K); antibody captured on anti-human IgG Fc CM5 chip; HER2 ECD 0.625-80 nM as analyte; 1:1 global fit; 25 C
T1 construct: extracellular domain; also called ErbB2; HER2/neu

HER2 ECD [2] = target: T2, HER2 ECD (human, UniProt P04626 23-652); assay: SPR Biacore, binding to Her2 ECD, 1:1 binding model (global fit); HER-10 expressed from Expi293 cells
T2 construct: extracellular domain
Experimental: (§1) Antibody binding to HER2 was analyzed by Biacore 8K (GE Healthcare) surface plasmon resonance instrument (SPR). All reagents used were from GE Healthcare. HBS-EP+ was used as the sample and running buffer and the interaction was measured at 25° C. […] HER2 ECD (0.625-80 nM, 2-fold dilution) was passed over the captured anti-HER2 antibody at 30 μl/min flow rate, and association and dissociation phases were recorded for 300 and 600 sec, respectively. The sensor chip was regenerated by a 30 sec injection of 3M MgCl₂ at 30 μl/min at the end of each injection cycle. […] The conditioned media was diluted in HBS-EP+ to achieve a capture level that produced a final HER2 binding response of less than 200 RU.
(§2) SK-BR-3 cells were reverse transfected with plasmid DNA using Lipofectamine LTX and PLUS Reagent in fibronectin-coated flasks. The culture supernatant was replaced with serum-free medium (Opti-MEM) one day post-transfection. Three days post-transfection, the culture medium was concentrated using centrifugal concentrators (MilliporeSigma) and analyzed by Biacore SPR binding to Her2 ECD with data fitted to a 1:1 binding model (global fit).

HER2 ECD [3] = target: T2, HER2 ECD; assay: SPR Biacore, binding to Her2 ECD, 1:1 binding model (global fit); HER-10 from concentrated SK-BR-3 culture medium
Experimental: as §1, §2

HER2 on SK-BR-3 cells = HER2 on SK-BR-3 cells (human, UniProt P04626 23-1255); assay: cell-based or functional assay

Row | Binder | Kd (HER2 ECD [1]) | koff (HER2 ECD [1]) | kon (HER2 ECD [1]) | Kd (HER2 ECD [2]) | Kd (HER2 ECD [3]) | Emax (SK-BR-3 cell proliferation, CellTiter-Glo 2.0, five days) (HER2 on SK-BR-3 cells) | IC50 (SK-BR-3 cell proliferation, CellTiter-Glo 2.0, five days) (HER2 on SK-BR-3 cells)
1 | HER-10 recombinant (naked) antibody (antibody, human IgG1, kappa, V domains shown, also called Ab-HER-10) VH: QVQLQQSGPELVKPGASLKLSCTASGFNIKDTYIHWVKQRPEQGLEWIGRIYPTNGYTRYDPKFQDKATITADTSSNTAYLQVSRLTSEDTAVYYCSRWGGDGFYAMDYWGQGASVTVSS VL: DIVMTQSHKFMSTSVGDRVSITCKASQDVNTAVAWYQQKPGHSPKLLIYSASFRYTGVPDRFTGSRSGTDFTFTISSVQAEDLAVYYCQQHYTTPPTFGGGTKVEIKR | 1.2 nM | 0.00021 s⁻¹ | 190000 M⁻¹ s⁻¹ | – | – | – | –
2 | HER-10 anti-HER2 antibody (Ab-HER-10) (antibody, human IgG1, kappa, V domains shown) VH: QVQLQQSGPELVKPGASLKLSCTASGFNIKDTYIHWVKQRPEQGLEWIGRIYPTNGYTRYDPKFQDKATITADTSSNTAYLQVSRLTSEDTAVYYCSRWGGDGFYAMDYWGQGASVTVSS VL: DIVMTQSHKFMSTSVGDRVSITCKASQDVNTAVAWYQQKPGHSPKLLIYSASFRYTGVPDRFTGSRSGTDFTFTISSVQAEDLAVYYCQQHYTTPPTFGGGTKVEIKR | – | – | – | 1.58 nM | 0.96 nM | – | –
3 | HER-10 vectorized anti-HER2 antibody (antibody, human IgG1, kappa, V domains shown, also called Ab-HER-10) VH: QVQLQQSGPELVKPGASLKLSCTASGFNIKDTYIHWVKQRPEQGLEWIGRIYPTNGYTRYDPKFQDKATITADTSSNTAYLQVSRLTSEDTAVYYCSRWGGDGFYAMDYWGQGASVTVSS VL: DIVMTQSHKFMSTSVGDRVSITCKASQDVNTAVAWYQQKPGHSPKLLIYSASFRYTGVPDRFTGSRSGTDFTFTISSVQAEDLAVYYCQQHYTTPPTFGGGTKVEIKR | 1.5 nM | 0.00025 s⁻¹ | 170000 M⁻¹ s⁻¹ | – | – | – | –
4 | Ab-HER-78 (bispecific antibody, human IgG1, kappa) heavy: QVQLVQSGAEVKKPGASVKVSCKASGYSFTGYFINWVREAPGQGLEWMGHISSSYATSTYNQKFQGRVTFTVDTSSSTAYMELSSLRSEDTAVYYCVRSGNYEEYAMDYWGQGTLVTVSSASTKGPSVFPLAPSSKSTSGGTAALGCLVKDYFPEPVTVSWNSGALTSGVHTFPAVLQSSGLYSLSSVVTVPSSSLGTQTYICNVNHKPSNTKVDKRVEPKSCDKTHTCPPCPAPELVGGPSVFLLPPKPKDTLMISRTPEVTCVVVDVSHEDPEVKFNWYVDGVEVHNAKTKPPEEQYNSTLRVVSVLTVLHQDWLNGKEYKCKVSNKALPAPIEKTISKAKGQPREPQVYTLPPSRDELTKNQVSLTCLVKGFYPSDIAVEWESNGQPENNYKTTPLVLDSDGSFFLYSKLTVDKSRWQQGNVFSCSVMHEALHNHYTQKSLSLSPGK light: not shown | – | – | – | – | – | 56.5% | 0.08 µg/mL
